Assay results as given in the supplement of paper PMC12764529.
± gives the half width of the 95% confidence interval.

Assay: folding stability dG unfold (combined trypsin and chymotrypsin); higher = more stable
How it was run: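 Digests were run with trypsin and chymotrypsin at 11 concentrations in threefold dilutions, plus a no-protease condition, on designed mini-proteins in a PA-tagged cDNA display construct. The mini-proteins were under 80 residues, had no cysteine, and were kept only when AlphaFold2 dimer inter-PAE was above 15. After sequencing, Bayesian fitting of the counts gave K50, from which unfolding free energy was derived against a sequence-predicted unfolded-state K50 and a shared folded-state K50, per protease or combined.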

Sequence | folding stability dG unfold [kcal/mol]
SAGGPNWMQMEIWLPPGNPEKIEKIIRDKGWKVEDIKVKEVNPNNGWMRVTIYMPGPWPMDEIKEAVRSAGG [r13_725_TrROS] | 3.15 ± 0.25
SAGGSAIEPGQKVLVLFPEDGGLATLTFDPTTRTVEIEVGGERRTYPVDSLQDVLDELGAEVLSTDSAGGSA [r15_500_TrMRF] | 1.82 ± 0.072
SAMYLIKITIYNEETGEKIAELTLEVEEEDLEELLEEIRKKLNLPPGAKIKVEIVPLEPVVLPDGKLLKSAG [r14_297_TrROS_Hall] | 1.7 ± 0.27
SAGGSAMSEEALAEAERLVAERRAALEAAGVPVTVERVEVTVTVDTEVPTTNITVDLDVRLPDAPESAGGSA [r2_94_JUSTAS] | 0.999 ± 0.027
SAGGKLAELKEILKKLGLPKIESIEEDPETGVLRFKASSSKPILVTVPVRSLGDGSRPIEVEIKSTNISAGG [r13_410_JUSTAS] | 0.342 ± 0.18
SPNFERYEHTIEIELPNGRRIKIDVEMYRPPDGNPWARIKIEVEDNNGEPKKKDIWMPMNDAEKAIEDLLSA [r9_189_TrROS] | 1.99 ± 0.43
SAGGMTEEEAKELAKELAEKYAEEKGIEEIELKIESVEKEGDKFTVKVKLTFPNEEKTITITIPKDLISAGG [r13_611_JUSTAS] | 3.24 ± 0.11
SAGGSAKITVEVVVRSLEELEALVKALAPPGMEVEVKIVSVERRTVEVNGEKREVLVVRVEIEVKPSAGGSA [r15_95_TrROS_Hall] | 3.9 ± 0.33
SAGGSAGGSAMTIEVTVPPEVPEEEAAERVARALRELFPIPEIKVSVERRPDGIIKVTVEGGSAGGSAGGSA [r18_1_TrMRF] | 0.888 ± 0.1
SAGGMIEIIPNPPIIIVRDASTNEISVYNIDAPPGSITRVELTSDGSILIYNPATGKVLVLPKSDIKSAGGS [r16_410_TrMRF] | 1.62 ± 0.077
SAGGSAGGSAPPLKIVIRIEFPDPNGKKQEYEIPADYPLEQVKDNAEEPFPGAKIENIEVVSAGGSAGGSAG [r3_60_TrROS] | 1.21 ± 0.049
SAGMEEVEITIKITIEVPEGEEVTPEELAEALREAGFEIVEVKVEKTEDGRKRVTVEIKIRLTPEELEKSAG [r5_167_TrROS_Hall] | 2.23 ± 0.19
SAPDVVVVPIKIPPGEMSPSDMIEMIEQAFDQFNWPITPDRIEKLVDKAMKNGDSIWAVIRYLREEGWLSAG [r14_364_TrROS] | 2.86 ± 0.076
SKKIIKIKIEVIFPKTKKKIEIEIEMTEEEAKKLAEELKKKFKDEKVEVKIVKIEPLPPKKKKKVSKKKKSA [r9_14_TrROS_Hall] | 1.83 ± 0.2
PVKVIEIRVEDPEKTAEEILAELRKKLPEEVKELRLFIVTPDGRVREIEPGETLADLLKPGDTVRIVVVERS [r1_56_TrROS_Hall] | > 6
SAGKKIHITLTEDELREIAEALGLEPEDMTAEELAARLREEFPDVEVTIEKPPVEEREREERELAEEEKSAG [r5_264_TrROS_Hall] | 1.3 ± 0.14

Sequence | folding stability dG unfold [kcal/mol]
SAGGSAGGSAGGKTLKLTLTLKVEVKETVTTTTADGTTEERPVKEVEVKLTATIDLSDLSAGGSAGGSAGGS [r10_355_TrROS_Hall] | 4 ± 0.3
SAGGGPAPVVVTVEYDPETREQRVTARAGGGGVVFELSLPLGDKTVTVKVIPVGDKVLLEVEWEVKGSAGGS [r16_631_TrMRF] | 2.91 ± 0.15
SAGRFIRIRFKDPGMSMDNLVKEIKEELGIPPDHKVTIDWEPDPNGGYEITIQVDDPQVRDKILEALRSAGG [r19_215_TrROS] | 2.97 ± 0.15
SAGGSAGGSGSSLVSETVEEGPGLTTRTLTYRLPGAPGVLLERTVTYDPEGNELATSLTVVPESAGGSAGGS [r12_62_JUSTAS] | 0.15 ± 0.059
SAGGSAGGSAGGLGLDLPVFPVKTTTSSSTVPLPNGQTVTVTTTTTTFPGSSSTTTTTTGSAGGSAGGSAGG [r17_59_JUSTAS] | 1.31 ± 0.037
SAGGSAGGSAGGSMTLVIKNGIGYTVIKIKVEYDEETGEFSFELEIETKPVPPNYPVPASAGGSAGGSAGGS [r4_215_TrMRF] | 3.99 ± 0.59
SAGGAKELFEAIPGAEAEYDPETGTLRVRFEFPDYTVLVEIPTDKETGEVLGVRVYVIDKDGVPHEIDLSAG [r5_367_TrMRF] | 4.52 ± 0.23
SAGGSAGGSELNIEKIVVLDYDPETGLAYVKIFYGDGEVKEFKVKSLEELKEKFPDVEILEKGSAGGSAGGS [r12_403_TrMRF] | 4.43 ± 0.065
SAGMMKRIVVTARFPADEMTLDEFVELILAKLPGVKPVRVEILSVRPRPDGSYEVTVLLLVEAPPDVDASAG [r5_682_TrMRF] | 4.23 ± 0.048
SAGLGIWRDPDMWKLEFNLLLPNGYVYKVEVTVTPDGIDVSIEPVPIPPVPTADSPEDAKEYQKQNENQSAG [r5_272_TrROS] | 2.06 ± 0.35
SAGGAIELPDLGEEEAIETLKKLAEEGIKNPVGVIRTPTKPLVITYDPETNTVTITLPDGTILTLVVSAGGS [r16_481_JUSTAS] | 1.52 ± 0.11
SAKKKKPLPKIKKIKITITLKDGTKIEMEITKVEVLEDGTVKIKMKMKVIDKKTKKKYEFEIEIIIKLKSAG [r14_591_TrROS_Hall] | 3.27 ± 0.21
SAGGPSIPGEKIRELLEKGYSLEEIVEFLEKENIPIARIEGVEPHPNSITIVFYNPETGEKITAVIGSAGGS [r8_179_TrMRF] | 2.72 ± 0.14
SAGGSAGGSARIYVTLPDGTVLEVEFEGEEEAERVAEEIEAELKEKGIEPKSITIEPVSPEEGSAGGSAGGS [r12_301_JUSTAS] | 1.27 ± 0.16
SASEDGYVVVEITIPIEIYMPMYKYSPDGKWKWEPHQMEIKLEITVQVKKDPEAADRAREFADRILDYISAG [r14_830_TrROS] | 3.22 ± 0.23
SAGGSAPPNIVRPYVRPFLIYNPNGEPAALGELVIFEAPEGRLILLRLRSLENGEELELPFLYPGESAGGSA [r15_819_TrMRF] | 3.25 ± 0.037
